The values that follow come from the nanobody polyreactivity screen of Harvey et al. (2022).

The nature of the data set: yeast display, Sf9 membrane polyspecificity reagent, FACS + sequencing; frameworks hold sequencing errors. A digest of the protocol:
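A nanobody's polyreactivity label depends on the gate it was sorted from. Yeast display cells were stained with 10% biotinylated, detergent-solubilized Sf9 membrane reagent for 1 hour at 4 °C, enriched on streptavidin microbeads and sorted by FACS. The low and high (top ~1%) gates were set on anti-HA fluorescence for expression and streptavidin fluorescence for reagent binding.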
Consider “QVQLVESGGGLFQAGGSLRLSCAAYGRTFYVYALGWYRQAPGKEREFVAAITSSGGSTYYADSVKGRFTISRDNAKNTVYLQMNSLKPEDTAVYYCAADDWDWENDYWGQGTQVTVSS”, for which the “polyreactivity (PSR sort gate)” value was “low polyreactivity”.
As for “QVHLVESGGGLVQAGGSLRLSCDASGRLIARYAMGWHRPAPGKERELVAAISSGGRTYYADSVKGRFTISRDNAKNTVYLQMNSLKPEDTAVYYCAASSGGATRGHDYWGQGTQVTVSS”, the entry is “high polyreactivity”; as for “QVQLVESGGGLVQAGGSLRLSCAASGSIFYGYAMGWYRQAPGKERELVAAITTSGGSTYYADSVKGRFTISRDNAKYTVYLQMNSLKPEDTAVYYCAAVTYWPGGYYWGQGTQVTVSS”, “high polyreactivity”.
As for “QVQLVESGGGLVQAGGSLRLSCAASGSIFHIYMGWYRQSPGKERELVASNSYRGGTTYYADSVKGRFTISRDNAKNTVYLQMNSLKPEDTAVYDCNVDRYFYHYGRYGHMDYWGQGTQVTVSS”, the entry is “low polyreactivity”; as for “QVQLVESGGALLQAGGSLRLSCAASGGTFDTYAMGWYRQAPGKERELDAVIRASGGDTYYADSVKGRFTISRDNAKNTVYLQMNSLKPEDTAVYYCAAVLPFKYDYWGQGTQVTVSS”, “low polyreactivity”; as for “QVQLVESGGGLVQAGGSLRLSCAASGSIFSLNAMGWYRQAPGKERELVAAINSGGTSTYYADSVKGRFTMSRDNAKNTVYLHMKSLKPEDTAVYYCAKRQRDYSSVFDVDYWGQGTQVTVSS”, “low polyreactivity”.
Regarding “QVQLVESGGGLVQAGGSLRLSCAASGSIFVKYAMGWYRQAPGKERELVASITGRGGSTYYADSVKGRFTISRDNAKNTVYLQMNSLKPEDTAVYYCAARVASRHGWHNYWGQGSQVTVSS”, the “polyreactivity (PSR sort gate)” value is reported as “high polyreactivity”.
In the case of “QVQLVESGGGLVQAGGSLRLSCAASGRTFPVYAMGWYRQAPGKERELVAAIRFSGGSTYYADSVKGRFTISRDNAKNTVYLQMNSLKPEDTAVYYCAADDWSWSTAWVPWYNYDYWGQGTQVTVSS” it was “low polyreactivity”; in that of “QDQLVESVGGLVQAGGSLRLSCAASGTISYAGPMGWYRKAPGKEREFVAGIGVCSNTNYADSVKGRYTIIRDNAKNTVYLQMNSLIPEDTAVYYCAVGGYAPLGRPYWGQGTQVTVSS”, “low polyreactivity”; in that of “QVQLVESGGGLVQAGGSLRLSCAASGSTFVYYAMGWYRQAPGKERELVADISWSGGDTYYADSVKGRFTISRDNAKNTVYLQMNSLKPVDTAVYYCAAEWSTPSYVGFADGFEYWGQGTQVTVSS”, “low polyreactivity”.
As for “QVQLVESGGGLVQAGGSLRLSCAASGRIFGYNAMGWSRQAPGKERELGAAISWSGGSTFYADSVKGRFTISRDNAKNTVYLQMNSLKPEDTAVYYCAADSQDGYYYWGQGTQVTVSS”, the entry is “low polyreactivity”; as for “QVQLVESGGGLDHAGGRLRLSCAASGSIFIYYAMGWYRQAPGKERELVAAISNGGSTNYADSVKGRFTFSRDNAKNTVYLQMNSLKPEDTAVYYCNTDWGYFHGVRAYLGYGYWGQGTQVTVSS”, “low polyreactivity”.
As for “QVQLVESGGGLVQAGGSLRLSCAASGSTFPYYAMGWYRQAPGKERELVAAISRRGTSTYYADSVKGRFTISRDNAKNTVYLQMNSLTPEDTAVYYCAAVGGAFPNRYYWGQGTQVTVSS”, the entry is “high polyreactivity”; as for “QVQLVESGGGLVQAGGSLRLSCAPSGSTFRYNAMGWYRQAPGKERELVAAITFSGDSTSYADSVKGRFTISRDNAKNTVYLQMNSLKPEDTAVYYCAVDTWNGDGSGYSLEFEYWGQGTQVTVSS”, “low polyreactivity”.
For the sequence “QVQLVESGGGLVQAGGSLRLSCAASGIILPYYVMGLYRQAPGKERELVAAISSGGRTYYADSVKGRFTISRDNAKNTVYLQMNSLKPEDTAVYYCNAYFTGKWYDYWGQGTQVTVSS”, the “polyreactivity (PSR sort gate)” value was “high polyreactivity”.
For “QVQLVESGGGLVQAGGSLRLSCAASGLTFYYNAMGWYRQAPGKERELVAAISRYGGSTYYADSVKGRFRISRDNAKNTDYLQMNSLKPEDTAVYYCAVAYVYTRKGRVQPVKYDYWGQGTQVTVSS”, the “polyreactivity (PSR sort gate)” value was “high polyreactivity”.
In the case of “QEQLQESGGGQVQDGGSLRMSCAASGSISYASGLCWYSQEQGKEREFVASIDPGAITNYADSVKGRFTISHDNAKNTVYLQMNRLKPEDTAVYYCAADGHGGYGYWGQGTQVTVSS” it was “high polyreactivity”.
“QVQLQESGGGLVQAGGSLRLSCAESGSISRYYDMGWYRQAPGKEREFVAGISGGAITYYADSVKGRFTISRDNAKNTVYLQMNSLKPEDTAVYYCAADTGVYQYHSYWGQGTQVTVSS”: the “polyreactivity (PSR sort gate)” value is “low polyreactivity”.
As for “QVQLVESGGGLVQAGGSLRLSCAASGSTFQGNAMGWYRQAPGKERELVAAISRSGGSTYADSVKGRFTMSRDNAKNTVYLQMNSLKPEDTAVYYCAAYSGVGYLWFDYWGQGTQVTVSS”, the entry is “low polyreactivity”; as for “QVQLVESGGGLVQAGGSLRLSCAASGGTFSGYTMGWYRQAPGKEWELVAAITRSGSSTYYADSVKGRFTISRDNAKNTVYLQMNSLKPEDTAVYYGAATYGSGVYKYDYWGQGTQVTVSS”, “high polyreactivity”.
On to “QVQLVESGGGLVQAGGSLRLSCAASGSTFNRYAMGWYRQAPGTERELVAAISGRGGSTYYADSVKGRFTISRDNAKNTVYLQMNSLKPEDTAVYYCAKLSYLHGTAREFRFDYWGQGTQVTVSS”, for which the “polyreactivity (PSR sort gate)” value is given as “high polyreactivity”.
In the case of “QVQLVESGGGLVQAGGSLRLSCAASGRIFGAYAMGWYRQAPWKERELVAAITSRGGNTYYADSVKGRFTISRDNAKNTVYLQMNSLKPEDTAVYYCAARHDKRRQYYVGQSAFDYWGQGTQVTVSS” it was “low polyreactivity”; in that of “KVQLVESGGGLVQAGGSLRLSCAASGRIFKYYAMGWYRQAPGKEMELVARISRSSGNTYYADSVKGRFTISRDNAKKTVYLQMNSLIPEDTAVYYCATVPHYNGFNYWGQGTQVTVSS”, “high polyreactivity”.
For the sequence “QVQLVESGGGLVQAGGSLRLSCAASGRIFTGYAMGWYRQAPGKERELVAVISSSTDRTYSADSVKGRFTISRDNAKNTVYFQMNSLKPEDTAVYYCAARPYRHKSRRYDYWGHGTQVTVSS”, the “polyreactivity (PSR sort gate)” value is given as “high polyreactivity”.
In the case of “QVQRVESGGGLVQAGGSLLLSCAASGRIFYRSAMGWYRQAPGKESELVASISWSGGSTYYADSVKGRFTISRDNAKNTVYLQMNSLKPEDTAVYYCAARSYRYSYRYRAFDYWGQGTQVTVSS” it was “high polyreactivity”; in that of “QVQLVESGGGLVQAGGSLRLSCAPSGRTLIHYAMGWSRQAPGKEREFVATINIGGRTYADSVKGRFTISRDNAKTTVYLQMNSLKPEDSAVYYCDADHRYSARRSFPTLYDYWAQGTQVTVSS”, “low polyreactivity”.
Consider “QVQLVESGGGLVQAGGSLRLSCAASGIIFTYYAMGWYRQAPGKERELVAAISYRGGSTYADSVKGRFTISRDNAKNTVSLQMNSLKPEDTAVYYCAAQRWYVYGQKYHYGYWGQGTQVTVSS”, for which the “polyreactivity (PSR sort gate)” value is listed as “high polyreactivity”.
As for “QVQLVESGGGLVQAGGSLRLSCAASGFIIVIYAMGWYIQAPGKERELVAAIRWRGGGTYYADSVKGRFTISRDNAKNTVYLQMNSLKPEDTAVYYCNADGWTYREEYWWRMDYWGLGTQVTVSS”, the entry is “low polyreactivity”.
In the case of “QVQLVESGGGLVQAGGSLRLSCAASGRIFRSNAMGWYRQAPGKERELVATISRRGGSTYYADSVKGRFTISRDNAKNTVYLQMNSLKPEDTAVYFCNTRNSGSLDLYNTMDYWGQGTQVTVSS” it was “high polyreactivity”; in that of “QVQLVESGGGLVQAGGSLRLSCAASGSIFSWYAMGWYRQAPGKERELVAAISSRGGSTYYADSVKGRFTISRDTAKNTVYLQMYSLKPEDTAVYYCNTTYGYSTYWASGKYDYWGQGTQVTVSS”, “low polyreactivity”; in that of “QVQLVESGGGLLQAGGSLRLSCAASGIILYWNTMGWYRQAPGKERELVAAITWSVGRTYYADSVKGRFTISRDNAKNTVYLQMNSLKPEDTAVYYCNAGYDSYSRDYWGQGTQVTVSS”, “low polyreactivity”.
For the sequence “QVQLVESGGGLVQAGGSLRLSCAASGRILYGNVMGWYRQAPGKERELVAAIDSSGATTYYADSVKGRITISRDNAKNTVYLQMNSLKPDDTAVYYCAAEVTSFSFGGDATEYYWGQGTQVTVSS”, the “polyreactivity (PSR sort gate)” value is recorded as “low polyreactivity”.
As for “QVQLVESGGVLVQAGGSLRLSCAASGRTVTVNAMGWYRQAPGKERELVAAITGRGGNTNYADSLKGRFTISRDNAKNTVYLQMNSQKPEDTAVFYCYARYHGRAKHDYWGQGTQVTVSS”, the entry is “high polyreactivity”.
As for “QVQLVESGGGLVQAGGSLRLSCAASGFISDVYAMGWSRQAPGKEREWVAVITWRGSTYYADSVKGRFTISRDNAKYTVYLQMNSLKPEDTAVYYCAAESQGDWAFDYWGQGTQVTVSS”, the entry is “low polyreactivity”; as for “QDQLVESGGGLVQAGGSLRLSCAASVSIFGSYAMGWYRQAPGKERELVAGITSSGGSTYYADSVKGRFTISRDNAKNTVYLQMNSLKPEDTAVYYCNAPLGWWQFYYCGQGTQVTVSS”, “high polyreactivity”.
As for “QFQLVESGGGLVQAGGSLRLSCAASGSTINPNTMVWSREAPGKERELVAVISSGGSTYYADSVKGRFTISRDNATNTVYLQMNSLKPEDSAVYYCAADRGTVSYLYCPRAVYYWGQGTQVTVSS”, the “polyreactivity (PSR sort gate)” value is “low polyreactivity”.
As for “QVQLVESGGGLVQAGGSLRLSCAASGIIFYRSVMGWYRQAPGKERELVAAITSGGSTNYADSVKGRFTISRDNAKNTVYLQMNSLKPEDTAVYYCAAVPRYRRWKYDYWGQGTQVTVSS”, the entry is “high polyreactivity”.
In the case of “QVQLVESGGGLVQEGGSLRLSCAASGIIFPVYDMGWYRQAPGKERELVASITDSGGSTSYADSVKGRFTLSRDNAKNTVYLQMNSLKPEDTAVYYCAVTDSDTNYYGYLSYDYWGQGTQVTVSS” it was “low polyreactivity”; in that of “QVQLVDSRGCLVQAGGSLRLSFAASGSIFGYYSMVWYIQAPGKESELVAAISYSGSRTYYADSVKGRFTISRDNAKNTVYLQKNSLKPEDTAVYYCAVLRRDGFEYWGQGTQVTVSS”, “high polyreactivity”.
In the case of “QVQLVESGGGLVQAGGRLRLSCAASGSIFDIYAMGWYRQAPGKERELVASIRRRGGSTYYADSVKGRFTISRDNAKNTVYLQKNSLKPEDTAVYYSNARRVWLRTTGTNWPERGYWGQGTQVTVSS” it was “high polyreactivity”.
